Article PMC10576089, “Integrative solution structure of PTBP1-IRES complex reveals strong compaction and ordering with residual conformational flexibility”

B1: SLE (structured_RNA)
RNA: GGAGCGUUUGUCUAUAUGUUCC
B2: EMCV-IRES-DtoF (structured_RNA)
RNA: UACUGGCCGAAGCCGCUUGGAAUAAGGCCGGUGUGCGUUUGUCUAUAUGUUAUUUUCCACCAUAUUGCCGUCUUUUGGCAAUGUG

Assays:
PTBP1 RRM1 = PTBP1 RRM1 (UniProt P26599-1 41-163); experiment: NMR (intermolecular NOEs); binding register confirmed; NMR/SANS: 10 mM NaPO4 pH 6.5, 20 mM NaCl, 1-2 mM DTT; protein NMR at 313/323 K, imino spectra 278-293 K; DEER 1:1 d8-glycerol at 50 K; SAS 23 C; conditions: protein: recombinant; hairpin
PTBP1 RRM1, sequence (P26599 41-163): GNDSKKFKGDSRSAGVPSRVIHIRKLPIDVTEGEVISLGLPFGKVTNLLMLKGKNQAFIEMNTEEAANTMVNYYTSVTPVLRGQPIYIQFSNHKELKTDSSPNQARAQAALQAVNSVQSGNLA

PTBP1 (hnRNP I) = PTBP1 (hnRNP I) (UniProt P26599-1 1-531, C250S;C251S); experiment: NMR; SAXS/SANS; CLIR-MS/MS; integrative structure; ensemble in Zenodo 10.5281/zenodo.7798970; NMR/SANS: 10 mM NaPO4 pH 6.5, 20 mM NaCl, 1-2 mM DTT; protein NMR at 313/323 K, imino spectra 278-293 K; DEER 1:1 d8-glycerol at 50 K; SAS 23 C; conditions: protein: recombinant; stem-loops D, E and F with single-stranded linkers
PTBP1 (hnRNP I), sequence (P26599 other isoform, or with tags, fused parts or gaps C250S;C251S): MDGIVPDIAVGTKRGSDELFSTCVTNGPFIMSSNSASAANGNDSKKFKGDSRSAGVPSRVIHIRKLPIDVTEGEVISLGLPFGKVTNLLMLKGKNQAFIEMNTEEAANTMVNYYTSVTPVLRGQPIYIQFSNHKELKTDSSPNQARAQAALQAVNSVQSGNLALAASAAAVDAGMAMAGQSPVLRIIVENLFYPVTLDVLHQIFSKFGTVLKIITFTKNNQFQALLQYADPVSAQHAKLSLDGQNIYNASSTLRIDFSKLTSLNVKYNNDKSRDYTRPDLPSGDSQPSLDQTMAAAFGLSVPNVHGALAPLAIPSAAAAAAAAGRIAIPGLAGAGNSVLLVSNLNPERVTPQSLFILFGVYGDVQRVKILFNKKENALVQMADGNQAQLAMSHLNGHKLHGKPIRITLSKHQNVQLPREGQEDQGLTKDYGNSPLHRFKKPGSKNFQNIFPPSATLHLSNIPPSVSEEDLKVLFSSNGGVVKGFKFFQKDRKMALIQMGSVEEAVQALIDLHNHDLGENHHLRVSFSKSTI

Row | Binder | binding result (PTBP1 RRM1) | binding result (PTBP1 (hnRNP I))
1 | B1 | binds | 
2 | B2 |  | binds
